The chains are these.
B1: canine IgGA antibody with wild-type IgGA Fc and the variable domain of Gearing et al. 2013 (antibody, part only; not given: variable domains and light chain, not shown: another chain or arm of the molecule; small tags and cut ends)
Fc: VPEPLGGPSVLIFPPKPKDILRITRTPEVTCVVLDLGREDPEVQISWFVDGKEVHTAKTQSREQQFNGTYRVVSVLPIEHQDWLTGKEFKCRVNHIDLPSPIERTISKARGRAHKPSVYVLPPSPKELSSSDTVSITCLIKDFYPPDIDVEWQSNGQQEPERKHRMTPPQLDEDGSYFLYSKLSVDKSRWQQGDPFTCAVMHETLQNHYTDLSLSHSPGK
B2: canine IgGA antibody, Fc variant A426H, variable domain of Gearing et al. 2013 (antibody, part only; not given: Variable domains, not shown: another chain or arm of the molecule; small tags and cut ends)
Fc: B1 Fc with A199H
B3: canine IgGA antibody, Fc variant A426Y, variable domain of Gearing et al. 2013 (antibody, part only; not given: Variable domains, not shown: another chain or arm of the molecule; small tags and cut ends)
Fc: B1 Fc with A199Y
B4: canine IgGB Fc (CH2-CH3) M428A with N-terminal SASA tag (Fc fusion, part only; not given: SASA tag, not shown: another chain or arm of the molecule; small tags and cut ends)
Fc: APEMLGGPSVFIFPPKPKDTLLIARTPEVTCVVVDLDPEDPEVQISWFVDGKQMQTAKTQPREEQFNGTYRVVSVLPIGHQDWLKGKQFTCKVNNKALPSPIERTISKARGQAHQPSVYVLPPSREELSKNTVSLTCLIKDFFPPDIDVEWQSNGQQEPESKYRTTPPQLDEDGSYFLYSKLSVDKSRWQRGDTFICAVAHEALHNHYTQESLSHSPGK
B5: canine IgGB Fc (CH2-CH3) P307A with N-terminal SASA tag (Fc fusion, part only; not given: SASA tag, not shown: another chain or arm of the molecule; small tags and cut ends)
Fc: B4 Fc with P77A, A200M
B6: canine IgGB Fc (CH2-CH3) T250A with N-terminal SASA tag (Fc fusion, part only; not given: SASA tag, not shown: another chain or arm of the molecule; small tags and cut ends)
Fc: B4 Fc with T20A, A200M
B7: canine IgGB Fc (CH2-CH3) T256A with N-terminal SASA tag (Fc fusion, part only; not given: SASA tag, not shown: another chain or arm of the molecule; small tags and cut ends)
Fc: B4 Fc with T26A, A200M
B8: canine IgGB Fc (CH2-CH3) A254S with N-terminal SASA tag (Fc fusion, part only; not given: SASA tag, not shown: another chain or arm of the molecule; small tags and cut ends)
Fc: B4 Fc with A24S, A200M
B9: canine IgGB Fc (CH2-CH3) L252A with N-terminal SASA tag (Fc fusion, part only; not given: SASA tag, not shown: another chain or arm of the molecule; small tags and cut ends)
Fc: B4 Fc with L22A, A200M
B10: canine IgGB Fc (CH2-CH3) I308A with N-terminal SASA tag (Fc fusion, part only; not given: SASA tag, not shown: another chain or arm of the molecule; small tags and cut ends)
Fc: B4 Fc with I78A, A200M
B11: canine IgGB Fc (CH2-CH3) Q285A with N-terminal SASA tag (Fc fusion, part only; not given: SASA tag, not shown: another chain or arm of the molecule; small tags and cut ends)
Fc: B4 Fc with Q55A, A200M
B12: canine IgGB Fc (CH2-CH3) T286A with N-terminal SASA tag (Fc fusion, part only; not given: SASA tag, not shown: another chain or arm of the molecule; small tags and cut ends)
Fc: B4 Fc with T56A, A200M
B13: canine IgGB Fc (CH2-CH3) H433A with N-terminal SASA tag (Fc fusion, part only; not given: SASA tag, not shown: another chain or arm of the molecule; small tags and cut ends)
Fc: B4 Fc with A200M, H205A
B14: canine IgGB Fc (CH2-CH3) Y436A with N-terminal SASA tag (Fc fusion, part only; not given: SASA tag, not shown: another chain or arm of the molecule; small tags and cut ends)
Fc: B4 Fc with A200M, Y208A

Numbering of substitutions follows the chain as printed. Names and notes keep the numbering of the source. Values joined by “and” are separate entries in the source; they are usually repeats but may differ in a detail not shown here. Equal entries are not always repeated.

The target of the first test is canine FcRn (FcRn large subunit with canine beta-2-microglobulin) (canine). Nature of the test: SPR pH 6.0, IgG coupled to CM5, FcRn 50-800 nM.
B1: the Kd amounted to 5970 nM, the koff came to 0.187 s⁻¹ and the kon came to 31400 M⁻¹ s⁻¹.
With B2, the Kd was found to be 1430 nM, the koff amounted to 0.0591 s⁻¹ and the kon was determined as 41400 M⁻¹ s⁻¹.
B3 yielded a dissociation constant Kd of 767 nM, a koff of 0.0375 s⁻¹ and a kon of 48900 M⁻¹ s⁻¹.

Another test shares this target. Nature of the test: SPR pH 5.5, SASA-Fc captured on BSA, FcRn 400 nM.
B4: the Kd is 723 nM and 1670 nM; the WT KD Avg/Variant KD was 0.78 and 0.34; the kon was 234000 M⁻¹ s⁻¹ and 318000 M⁻¹ s⁻¹.
Consider B5, for which the Kd was 325 nM and 338 nM; the WT KD Avg/Variant KD was 1.74 and 1.67; the koff is 1.23 s⁻¹.
Consider B6, for which the Kd is 335 nM and 328 nM; the WT KD Avg/Variant KD is 1.69 and 1.72.
With B7, the Kd is 447 nM and 298 nM; the WT KD Avg/Variant KD is 1.27 and 1.9; the koff is 0.166 s⁻¹.
Regarding B8, the Kd is 340 nM and 317 nM; the WT KD Avg/Variant KD was 1.66 and 1.78.
As for B9, the Kd was 292 nM and 240 nM; the WT KD Avg/Variant KD is 1.94 and 2.36.
Take B10: the Kd was 472 nM and 563 nM; the WT KD Avg/Variant KD is 1.2 and 1; the koff was 0.169 s⁻¹ and 0.194 s⁻¹; the kon was 357000 M⁻¹ s⁻¹ and 345000 M⁻¹ s⁻¹.
Turning to B11, the Kd was 341 nM and 257 nM; the WT KD Avg/Variant KD is 1.66 and 2.2; the off-rate (koff) amounted to 0.112 s⁻¹.
On to B12, for which the Kd was 464 nM and 569 nM; the WT KD Avg/Variant KD was 1.22 and 0.99; the koff was 0.196 s⁻¹ and 0.304 s⁻¹; the kon was 422000 M⁻¹ s⁻¹ and 533000 M⁻¹ s⁻¹.
For the molecule B13, the Kd is 266 nM and 359 nM; the WT KD Avg/Variant KD is 2.13 and 1.58; the koff was 0.229 s⁻¹ and 0.0997 s⁻¹.
Regarding B14, the Kd was 393 nM and 876 nM; the WT KD Avg/Variant KD is 1.44 and 0.65; the koff is 0.407 s⁻¹ and 0.213 s⁻¹.

Broadly, the Kd is the constant that tells how readily two partners part at equilibrium. Low values mean a tighter complex, high ones a looser complex. What is called koff is a measure of how fast the partners let go of each other. High values mean a short-lived complex, low ones a long-lived complex. The term kon denotes the second-order rate constant of association. A higher kon goes with faster complex formation.

The values are drawn from US20240327497A1.
